Measurements published in paper doi:10.1101/2025.09.18.677151, “Structure and substrate recognition by the Twin-arginine translocation (Tat) pathway core complex” (bioRxiv, 2025).
Blank lines part the entries; values can stand above or below the binder they belong to.

Experiments:
[1] = molecular target: the molecule itself; experiment: cryo-EM structure; M. xanthus TatBC complex purified in GDN; single particle, C3 symmetry
[2] = molecular target: the molecule itself; experiment: cryo-EM structure; N. salsuginis TatBC complex purified in GDN; single particle, C3 symmetry
E. coli TatBC complex = molecular target: T1, E. coli TatBC complex (E. coli, UniProt P69425 1-171; P69423 1-258); experiment: cryo-EM structure; purified MdoD (SUMO removed) mixed with purified E. coli Tat complex in 0.02% GDN overnight at 4°C, SEC; core region 2.4 Å (C3), focused refinement on MdoD 2.1 Å (C2); settings: both partners purified
T1 construct: TatB, E. coli; amplified from E. coli genomic DNA (DSM 1116); TatC, E. coli; also called TatB3C3; (TatBC)3; source: E. coli MC4100 ΔtatABCD ΔtatE, pQE60 based vector, overexpressed; purified in GDN (His-tag resin, SEC); for the pull-down captured from GDN-solubilised membranes on His-tag resin and washed; copies: 3 + 3
T1 sequence 1: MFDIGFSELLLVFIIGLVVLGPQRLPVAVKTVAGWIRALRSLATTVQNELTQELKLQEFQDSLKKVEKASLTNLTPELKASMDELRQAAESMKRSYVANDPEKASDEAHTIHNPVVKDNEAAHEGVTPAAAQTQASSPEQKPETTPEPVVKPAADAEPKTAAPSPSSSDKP
T1 sequence 2: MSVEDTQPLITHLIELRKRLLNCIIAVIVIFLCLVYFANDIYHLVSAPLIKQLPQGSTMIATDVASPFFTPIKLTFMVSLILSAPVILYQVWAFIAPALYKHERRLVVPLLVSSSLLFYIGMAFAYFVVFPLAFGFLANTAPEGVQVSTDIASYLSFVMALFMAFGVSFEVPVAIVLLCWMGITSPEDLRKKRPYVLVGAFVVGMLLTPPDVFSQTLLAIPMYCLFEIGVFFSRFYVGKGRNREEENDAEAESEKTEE

[3] = molecular target: the molecule itself; experiment: as above
[4] = molecular target: the molecule itself; experiment: crystal structure; selenomethionine-labelled M. xanthus TatC periplasmic domain; sitting drop, 21 °C; data to 2.0 Å
[5] = molecular target: T2, E. coli TatC with a C-terminal strep tag, expressed from the tatABC plasmid (E. coli, UniProt P69423 1-258); experiment: quantification of Coomassie stained SDS-PAGE bands of the purified complexes; purified E. coli TatABC and TatBC loaded at 4 dilutions; bands quantified with ImageJ; three independent samples; settings: both partners purified
T2 construct: TatC, E. coli; also called TatC_(strep); source: E. coli MC4100 ΔtatABCD ΔtatE, tatABC operon on a low copy number plasmid; in GDN-solubilised membranes, captured on Streptactin XT; not shown: strep tag, C-terminal, kept
T2 sequence: T1 sequence 2

[6] = molecular target: the molecule itself; experiment: cryo-EM structure; E. coli TatBC complex purified in GDN; single particle, C3 symmetry, 3.1 Å

B1: M. xanthus TatC (GFP-His removed) (natural protein, Myxococcus xanthus)
chain: MSLADHLTELRSRLMRCTIAVLILGTISLVFAKPIFGLLMQPVLDALPPENRSLIYTSGIEELNVLMKVGVYCGIFLTTPVILMQIWGFVSPGLYPEERRFAAPFVAFGSIAFLLGAAFCYFAVLPSMFTFLLNEEETLALEQRLDTARLRADDALRFLRLGEAEEAGRIAKETSTQLRAEGQGQAPAPEVAPAASVEMTGRLDGLGRLLDAASVGYGAQSRGVLRQAVEKRVEAVTAYEKKDFAAAAAAMDGSASLLAGIAPTRTEELAGLWRLEKELATAHAAHEAARWTRPMLSMHEQLSLVLLLILAFGIIFELPLVMALLGVVGVVKSSWLFRYQRHAFVVCLIAAAIITPTGDVVNLSLMAGPMLLCYELGVLLVWMVERRRARNSAETGITPAS
notes: TatC, Myxococcus xanthus, with a large periplasmic insert; gene codon-optimised and synthesised; source: E. coli strain L56, pWALDO based pTatC-GFP-His, co-overexpressed with TatB-strep; purified in GDN (Ni-NTA, TEV, Streptactin XT, SEC)
- stoichiometry N [1]: 3

B2: N. salsuginis TatC (GFP-His removed) (natural protein, Nitratifractor salsuginis)
chain: MFESMKPHLAELRQRLAISVLAVFVGFIIAFTFHNAILGWITKPLNNALIQVGKIVEKREMGTWKISGNEHNATLAPSKSPALLSDHAQSAEKLHRTLAEASQATQNPKLQKLLSQAASAAEELARNSRILRKALVKEENLTRQAVNQNLREKSFNGMITTHQVGGAFFVALKVSFFAGILMAMPVILWQLWLFIAPGLYDNEKKMVLPFVVGGSVMFLIGVLFAYYVVTPFGFQFLITFGSFLYTPLINIEDYVGFFTKILIGFGIAFELPVVAYFLALLGLITDKTLKDYFKYAIVIIFLLAAFLTPPDVLTQLLMAAPLILLYGLSILIVHYVNPYKPEEKEDDEEEEEDEFEKAEREFEALEKGSESHES
notes: TatC, Nitratifractor salsuginis, with a large periplasmic insert; gene codon-optimised and synthesised; source: E. coli strain L56, pWALDO based pTatC-GFP-His, co-overexpressed with TatB-strep or TatA-strep; purified in GDN or digitonin (Ni-NTA, TEV, Streptactin XT, SEC)
- stoichiometry N [2]: 3

- stoichiometry N (E. coli TatBC complex): 3
B3: E. coli MdoD, full length with its Tat signal peptide (natural protein, UniProt P40120 1-551, looked up)
chain: MDRRRFIKGSMAMAAVCGTSGIASLFSQAAFAADSDIADGQTQRFDFSILQSMAHDLAQTAWRGAPRPLPDTLATMTPQAYNSIQYDAEKSLWHNVENRQLDAQFFHMGMGFRRRVRMFSVDPATHLAREIHFRPELFKYNDAGVDTKQLEGQSDLGFAGFRVFKAPELARRDVVSFLGASYFRAVDDTYQYGLSARGLAIDTYTDSKEEFPDFTAFWFDTVKPGATTFTVYALLDSASITGAYKFTIHCEKSQVIMDVENHLYARKDIKQLGIAPMTSMFSCGTNERRMCDTIHPQIHDSDRLSMWRGNGEWICRPLNNPQKLQFNAYTDNNPKGFGLLQLDRDFSHYQDIMGWYNKRPSLWVEPRNKWGKGTIGLMEIPTTGETLDNIVCFWQPEKAVKAGDEFAFQYRLYWSAQPPVHCPLARVMATRTGMGGFSEGWAPGEHYPEKWARRFAVDFVGGDLKAAAPKGIEPVITLSSGEAKQIEILYIEPIDGYRIQFDWYPTSDSTDPVDMRMYLRCQGDAISETWLYQYFPPAPDKRQYVDDRVMS
notes: MdoD (OpgD), E. coli, precursor with the 32 residue Tat signal peptide; amplified from E. coli genomic DNA (DSM 1116); also called OpgD; source: E. coli BL21 (DE3) ΔtatABCD ΔtatE, pET28a modified, purified (His-tag resin), His6-SUMO removed with Ulp1; not shown: His6-SUMO, N-terminal, cleaved
- stoichiometry N [3]: 2

B4: M. xanthus TatC periplasmic domain (residues 127-303) (domain or fragment, Myxococcus xanthus, UniProt Q2PHA2 127-303, looked up)
chain: SMFTFLLNEEETLALEQRLDTARLRADDALRFLRLGEAEEAGRIAKETSTQLRAEGQGQAPAPEVAPAASVEMTGRLDGLGRLLDAASVGYGAQSRGVLRQAVEKRVEAVTAYEKKDFAAAAAAMDGSASLLAGIAPTRTEELAGLWRLEKELATAHAAHEAARWTRPMLSMHEQLS
modifications: selenomethionine-labelled
notes: TatC, Myxococcus xanthus, periplasmic domain, residues 127-303; also called M. xanthus insert; M. xanthus periplasmic domain; source: E. coli B834 (DE3), pET15b, purified (Ni-NTA, TEV, SEC)
- stoichiometry N [4]: 3

- ratio of TatB to TatC in the TatABC complex relative to the TatBC complex [5]: 0.78
B5: E. coli TatB expressed from the tatABC plasmid (natural protein)
chain: T1 sequence 1
notes: TatB, E. coli; source: E. coli MC4100 ΔtatABCD ΔtatE, tatABC operon on a low copy number plasmid; in GDN-solubilised membranes, co-purified

B6: E. coli TatB (subunit of the overexpressed TatBC complex) (natural protein)
chain: T1 sequence 1
notes: TatB, E. coli; amplified from E. coli genomic DNA (DSM 1116); residues 1-63 modelled in the cryo-EM map; source: E. coli MC4100 ΔtatABCD ΔtatE, pQE60 based vector, co-overexpressed with TatC; purified in GDN (His-tag resin, SEC)
- binding result [6]: binds
